According to US20090042251:

T1: reduced and carboxymethylated (S54G, P55N)-RNase T1, P00651
T1 chain: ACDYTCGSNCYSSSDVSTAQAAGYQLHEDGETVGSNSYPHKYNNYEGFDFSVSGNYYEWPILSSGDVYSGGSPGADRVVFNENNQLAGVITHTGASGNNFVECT

B1: hFKBP12-IF4 (protein)
chain: GVQVETISPGDGRTFPKRGQTAVVHYTGMLEDGKKFDSSRDRNKPFKFMLGKQEVIRGWEEGVAQMSVGQRAKLTISPDYAYGVPSPDLIQYFSRREFMDAGEPEIGAIMLFTAMDGSEMPGVIREINGDSITVDFNHPLAGQTLVFDVELLKLEHHHHHH
B2: hFKBP12-IF1 (C22A) (protein)
chain: GVQVETISPGDGRTFPKRGQTAVVHYTGMLEDGKKFDSSRDRNKPFKFMLGKQEVIRGWEEGVAQMSVGQRAKLTISPDYAYGQYDENLVQRVPKDVFMGVDELQVGMRFLAETDQGPVPVEITAVEDDHVVVDGNHMLAGQNLVFDVELLKLEHHHHHH
B3: SlyD* (SlyD 1-165) (protein)
chain: MKVAKDLVVSLAYQVRTEDGVLVDESPVSAPLDYLHGHGSLISGLETALEGHEVGDKFDVAVGANDAYGQYDENLVQRVPKDVFMGVDELQVGMRFLAETDQGPVPVEITAVEDDHVVVDGNHMLAGQNLKFNVEVVAIREATEEELAHGHVHGAHDHHHDHDHDHHHHHH
B4: SlyD* ΔIF loop (protein)
chain: MKVAKDLVVSLAYQVRTEDGVLVDESPVSAPLDYLHGHGSLISGLETALEGHEVGDKFDVAVGANDAYGATGHPGIIPPHATLKFNVEVVAIREATEEELAHGHVHGAHDHHHDHDHDHHHHHH
B5: SlpA (protein)
chain: SESVQSNSAVLVHFTLKLDDGTTAESTRNNGKPALFRLGDASLSEGLEQHLLGLKVGDKTTFSLEPDAAFGVPSPDLIQYFSRREFMDAGEPEIGAIMLFTAMDGSEMPGVIREINGDSITVDFNHPLAGQTVHFDIEVLEIDPALEAHHHHHH
B6: TcFKBP18 (protein)
chain: MKVEAGDYVLFHYVGRFEDGEVFDTSYEEIARENGILVEEREYGPMWVRIGVGEIIPGLDEAIIGMEAGEKKTVTVPPEKAYGMPNPELVISVPREEFTKAGLEPQEGLYVMTDSGIAKIVSVGESEVSLDFNHPLAGKTLVFEVEVIEVKKAEEDSEA
B7: hFKBP12-IF5 (protein)
chain: GVQVETISPGDGRTFPKRGQTCVVHYTGMLEDGKKFDSSRDRNKPFKFMLGKQEVIRGWEEGVAQMSVGQRAKLTISPDYAYGMPNPELVISVPREEFTKAGLEPQEGLYVMTDSGIAKIVSVGESEVSLDFNHPLAGKTLVFDVELLKLEHHHHHH

Key:
[1] = molecular target: reduced and carboxymethylated (S54G, P55N)-RNase T1 (UniProt P00651)
[2] = molecular target: T1, reduced and carboxymethylated (S54G, …)

Molecule	Specificity constant kcat/KM (RCM-T1 refolding assay) [2] [M⁻¹ s⁻¹]	also measured
hFKBP12	–	Specificity constant kcat/KM (RCM-T1 refolding assay) [1]: 14000 M⁻¹ s⁻¹
B1	850000	specificity constant (kcat/KM) [2]: 800.000 M⁻¹ s⁻¹
B2	2.5e+06	concentration sufficient to double the folding rate of RCM-T1 [2]: Less than 1 nM FKBP12-IF1 are sufficient to double the folding rate of RCM-T1; specificity constant [2]: higher than 2.5×10^6 M^-1s^-1
B3	680000	concentration at which refolding of RCM-T1 is twofold accelerated [2]: In the presence of as low as 2 nM SlyD* refolding of RCM-T1 is already twofold accelerated
B4	500	specificity constant relative to SlyD* [2]: amounts to only 0.07% of SlyD*
B5	< 1000	–
B6	600000	–
B7	660000	–
